Results on 39 sequences are retold here after the supplement of paper PMC7877785.

The series is described as follows: self-splicing fitness, log relative to wild type (ln ratio); higher = more splicing; Tetrahymena group I intron in knt gene, E. coli kanamycin selection, DiMSum; sequences stand for … in CUCUCU…GGAGGGAAAAGUUAUCAGGCAUGCACCUGGUAGCUAGUCUUUAAACCAAUAGAUUGCAUCGGUUUAAAAGGCAAGACCGUCAAAUUGCGGGAAAGGGGUCAACAGCCGUUCAGUACCAAGUCUCAGGGGAAACUUUGAGAUGGCCUUGCAAAGGGUAUGGUAAUAAGCUGACGGACAUGGUCCUAACCACGCAGCCAAGUCCUAAGUCAACAGAUCUUCUGUUGAUAUGGAUGCAGUUCACAGACUAAAUGUCGGUCGGGGAAGAUGUAUUCUUCUCAUAAGAUAUAGUCGGACCUCUCCUUAAUGGGAGCUAGCGGAUGAAGUGAUGCAACACUGGAGCCGCUGGGAACUAAUUUGUAUGCGAAAGUAUAUUGAUUAGUUUUGGAGUACUCGUGGUCG
The method, boiled down: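 Pooled colonies went to amplicon sequencing on an Illumina HiSeq 2500 after six replicate transformations. The plates were LB agar with 100 μg/mL carbenicillin, 50 μM IPTG and 0.2% rhamnose, with or without 25 μg/mL kanamycin, incubated overnight at 37°C or 30°C. The E. coli BL21(DE3) library had all eight P1ex-region intron nucleotides randomised, the intron placed in the knt kanamycin-resistance gene on pET-22b(+). DiMSum fitness is the error-weighted combination of replicate fold changes, kanamycin against none, normalised to wild type.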

± gives the uncertainty stated by the source.

Regarding UAAAAGCAAUAUUACGAGGG, the “self-splicing fitness (ln)” value is, setting by setting: (30 °C) -3.83 ± 0.33; (37 °C) -2.47 ± 0.3.

Turning to UUCUAGCAAUAUUACGCAGU, the “self-splicing fitness (ln)” value reads like this: (30 °C) -3.89 ± 0.43; (37 °C) -3.11 ± 0.35.

Take AAAGAGCAAUAUUACGCCCU: the “self-splicing fitness (ln)” value was -2.57 ± 0.21 (30 °C) and -0.718 ± 0.17 (37 °C).

On to UGUUAGCAAUAUUACGCGAU, for which the “self-splicing fitness (ln)” value (30 °C) is -3.44 ± 0.47 and the “self-splicing fitness (ln)” value (37 °C) is -1.9 ± 0.4.

Consider UUCGAGCAAUAUUACGUCUA, for which the “self-splicing fitness (ln)” value (30 °C) was -1.29 ± 0.15 and the “self-splicing fitness (ln)” value (37 °C) was -0.414 ± 0.13.

Turning to CAAUAGCAAUAUUACGACUC, the “self-splicing fitness (ln)” value (30 °C) is -3.34 ± 0.24 and the “self-splicing fitness (ln)” value (37 °C) was -0.701 ± 0.12.

In the case of AGUUAGCAAUAUUACGAGCU, the “self-splicing fitness (ln)” value by setting is: (30 °C) -1.97 ± 0.15; (37 °C) -0.796 ± 0.17.

Turning to CAGAAGCAAUAUUACGGCCA, the “self-splicing fitness (ln)” value is -1.5 ± 0.26 (30 °C) and -1.83 ± 0.21 (37 °C).

Turning to GGACAGCAAUAUUACGUUGG, the “self-splicing fitness (ln)” value runs as follows: (30 °C) -1.69 ± 0.088; (37 °C) -0.723 ± 0.11.

In the case of GAGAAGCAAUAUUACGGCAA, the “self-splicing fitness (ln)” value is, setting by setting: (30 °C) -0.843 ± 0.084; (37 °C) 0.00427 ± 0.11.

Regarding AGAUAGCAAUAUUACGUUAC, the “self-splicing fitness (ln)” value (30 °C) was -2.05 ± 0.48.

As to CCGAAGCAAUAUUACGAUAC, the “self-splicing fitness (ln)” value by setting is: (30 °C) -3.86 ± 0.47; (37 °C) -1.95 ± 0.26.

Turning to GUCAAGCAAUAUUACGUAUU, the “self-splicing fitness (ln)” value is -2.98 ± 0.12 (30 °C) and -1.84 ± 0.1 (37 °C).

Consider GGCAAGCAAUAUUACGAUUC, for which the “self-splicing fitness (ln)” value reads like this: (30 °C) 0.184 ± 0.062; (37 °C) 0.142 ± 0.091.

AUCAAGCAAUAUUACGUCGG: the “self-splicing fitness (ln)” value (30 °C) is -3.01 ± 0.13 and the “self-splicing fitness (ln)” value (37 °C) was -1.29 ± 0.12.

For the sequence CGCCAGCAAUAUUACGGGGG, the “self-splicing fitness (ln)” value is, setting by setting: (30 °C) -3 ± 0.16; (37 °C) -2.17 ± 0.2.

Consider GGUGAGCAAUAUUACGACUA, for which the “self-splicing fitness (ln)” value (30 °C) is -0.202 ± 0.17 and the “self-splicing fitness (ln)” value (37 °C) is -0.327 ± 0.17.

CUUUAGCAAUAUUACGGUAC: the “self-splicing fitness (ln)” value is -2.49 ± 0.28 (30 °C) and -3.08 ± 0.47 (37 °C).

For the sequence CCGCAGCAAUAUUACGUCGG, the “self-splicing fitness (ln)” value is, setting by setting: (30 °C) -3.9 ± 0.21; (37 °C) -2.28 ± 0.2.

Consider GACUAGCAAUAUUACGUGCG, for which the “self-splicing fitness (ln)” value reads like this: (30 °C) -1.3 ± 0.073; (37 °C) -0.236 ± 0.091.

Regarding GUAUAGCAAUAUUACGGACC, the “self-splicing fitness (ln)” value (30 °C) is -1.89 ± 0.5 and the “self-splicing fitness (ln)” value (37 °C) was -2.56 ± 0.3.

Consider GGCAAGCAAUAUUACGUAGA, for which the “self-splicing fitness (ln)” value came out at 0.226 ± 0.077 (30 °C) and 0.582 ± 0.11 (37 °C).

For the sequence CCAGAGCAAUAUUACGCCUG, the “self-splicing fitness (ln)” value (37 °C) was -2.66 ± 0.36.

Regarding ACCAAGCAAUAUUACGCUCA, the “self-splicing fitness (ln)” value (30 °C) is -0.49 ± 0.098 and the “self-splicing fitness (ln)” value (37 °C) was -0.055 ± 0.11.

For GAUGAGCAAUAUUACGCUUC, the “self-splicing fitness (ln)” value (30 °C) is -4.04 ± 0.43.

Take UCCGAGCAAUAUUACGUGGA: the “self-splicing fitness (ln)” value was -2.47 ± 0.17 (30 °C) and -2.52 ± 0.19 (37 °C).

In the case of UAUCAGCAAUAUUACGCUCU, the “self-splicing fitness (ln)” value (30 °C) is 0.148 ± 0.12 and the “self-splicing fitness (ln)” value (37 °C) was 0.416 ± 0.13.

As for AGACAGCAAUAUUACGUAGU, the “self-splicing fitness (ln)” value (30 °C) is -3.27 ± 0.1 and the “self-splicing fitness (ln)” value (37 °C) was -1.88 ± 0.1.

CAGGAGCAAUAUUACGGUUU: where the note is “30 °C”, the “self-splicing fitness (ln)” value is -3.2 ± 0.41.

Consider AUUCAGCAAUAUUACGAAGA, for which the “self-splicing fitness (ln)” value runs as follows: (30 °C) -0.761 ± 0.13; (37 °C) -0.747 ± 0.12.

GAAAAGCAAUAUUACGCUUU: the “self-splicing fitness (ln)” value (30 °C) is -3.39 ± 0.22 and the “self-splicing fitness (ln)” value (37 °C) was -2.39 ± 0.26.

UAACAGCAAUAUUACGGAAC: the “self-splicing fitness (ln)” value is -3.85 ± 0.24 (30 °C) and -4.18 ± 0.39 (37 °C).

For the sequence UACAAGCAAUAUUACGAGGC, the “self-splicing fitness (ln)” value was -2.4 ± 0.3 (30 °C) and -1.84 ± 0.28 (37 °C).

In the case of GGAGAGCAAUAUUACGCACU, the “self-splicing fitness (ln)” value was -2.77 ± 0.49 (30 °C) and -1.94 ± 0.46 (37 °C).

Consider AUGAAGCAAUAUUACGCUGU, for which the “self-splicing fitness (ln)” value is, setting by setting: (30 °C) -2.02 ± 0.12; (37 °C) -0.999 ± 0.13.

Consider AUCCAGCAAUAUUACGUCAC, for which the “self-splicing fitness (ln)” value runs as follows: (30 °C) -2.35 ± 0.19; (37 °C) -2.44 ± 0.22.

Turning to CUCAAGCAAUAUUACGGCGG, the “self-splicing fitness (ln)” value was -2.38 ± 0.092 (30 °C) and -1.65 ± 0.11 (37 °C).

CGUGAGCAAUAUUACGAGAG: the “self-splicing fitness (ln)” value reads like this: (30 °C) -2.29 ± 0.25; (37 °C) -2.64 ± 0.36.

Take CCCGAGCAAUAUUACGCACG: the “self-splicing fitness (ln)” value (37 °C) is -3.26 ± 0.47.
